In patent US20260258142A1 (published 2026):

Target: Rabbit polyclonal Ab
Assay: ELISA

B1: phosphorylated HisTAG-ΔPDGFRAaa1-528 (receptor)
chain: QLSLPSILPNENEKVVQLNSSFSLRCFGESEVSWQYPMSEEESSDVEIRNEENNSGLFVTVLEVSSASAAHTGLYTCYYNHTQTEENELEGRHIYIYVPDPDVAFVPLGMTDYLVIVEDDDSAIIPCRTTDPETPVTLHNSEGVVPASYDSRQGFNGTFTVGPYICEATVKGKKFQTIPFNVYALKATSELDLEMEALKTVYKSGETIVVTCAVFNNEVVDLQWTYPGEVKGKGITMLEEIKVPSIKLVYTLTVPEATVKDSGDYECAARQATREVKEMKKVTISVHEKGFIEIKPTFSQLEAVNLHEVKHFVVEVRAYPPPRISWLKNNLTLIENLTEITTDVEKIQEIRYRSKLKLIRAKEEDSGHYTIVAQNEDAVKSYTFELLTQVPSSILDLVDDHHGSTGGQTVRCTAEGTPLPDIEWMICKDIKKCNNETSWTILANNVSNIITEIHSRDRSTVEGRVTFAKVEETIAVRCLAKNLLGAENRELKLVAPTLRSELTVA
modifications: tyrosine-phosphorylated (ectopically, by MAN2A1-FER in HUH7 cells); sites recognised by the antibodies: pY118/pY120, pY342, pY375, pY391
- Kd: 18.6 nM
